The values that follow come from US12534534 (F STAR BETA, dated 2026).

One experiment deals with T1, NGFR-Fc (human, UniProt P08138 29-250).
T1 construct: bought; also called NGFR (R&D Systems, 367-NR-050/CF); not shown: Fc part of the bought fusion
T1 sequence (looked up): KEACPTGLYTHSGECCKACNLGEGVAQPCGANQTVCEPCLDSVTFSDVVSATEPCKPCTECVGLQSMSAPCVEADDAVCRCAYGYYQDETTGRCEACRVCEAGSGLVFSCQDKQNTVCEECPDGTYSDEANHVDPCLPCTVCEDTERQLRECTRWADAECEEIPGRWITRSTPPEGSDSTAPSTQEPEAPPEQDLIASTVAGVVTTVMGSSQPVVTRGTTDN
Nature of the experiment: SPR, antigen immobilised on CM5 chip. For orientation: SPR reads the build-up and loss of mass on a sensor chip optically.

The target in the next experiment is T2, DR6-Fc (human, UniProt O75509 42-349, limits assumed).
T2 construct: bought; also called human DR6 (R&D Systems, 144-DR-100); not shown: Fc part of the bought fusion
T2 sequence (looked up): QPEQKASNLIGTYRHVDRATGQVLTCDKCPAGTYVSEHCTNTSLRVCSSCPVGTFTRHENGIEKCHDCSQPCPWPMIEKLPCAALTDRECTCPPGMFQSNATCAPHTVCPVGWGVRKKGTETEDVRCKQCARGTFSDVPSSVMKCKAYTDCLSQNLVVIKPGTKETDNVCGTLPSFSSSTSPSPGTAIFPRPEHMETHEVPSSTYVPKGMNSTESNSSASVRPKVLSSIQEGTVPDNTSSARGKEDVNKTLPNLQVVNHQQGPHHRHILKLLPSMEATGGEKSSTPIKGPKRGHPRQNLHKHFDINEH
Nature of the experiment: SPR, antigen immobilised on CM5 chip.

For the next experiment, the target named is T3, cCD137-mFc-Avi (cynomolgus, Homodimer through the mouse Fc (one chain given). In the biotinylated version one biotin sits on the Avi-tag lysine of each monomer.).
T3 construct: dimer; biotinylated version used on streptavidin plates; also called cyno CD137-mFc-Avi; cyno CD137-mFc
T3 chain: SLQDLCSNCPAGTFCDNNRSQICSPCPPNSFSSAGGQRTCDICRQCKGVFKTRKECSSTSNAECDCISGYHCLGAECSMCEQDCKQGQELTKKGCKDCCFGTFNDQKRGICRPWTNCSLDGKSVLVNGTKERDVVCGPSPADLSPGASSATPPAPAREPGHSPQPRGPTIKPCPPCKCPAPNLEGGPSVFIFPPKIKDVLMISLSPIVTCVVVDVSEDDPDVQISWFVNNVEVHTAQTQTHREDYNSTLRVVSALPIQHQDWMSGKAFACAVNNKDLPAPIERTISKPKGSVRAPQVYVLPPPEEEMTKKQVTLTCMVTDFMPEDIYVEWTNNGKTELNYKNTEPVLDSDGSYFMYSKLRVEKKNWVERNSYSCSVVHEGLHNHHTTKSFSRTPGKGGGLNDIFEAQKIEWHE
Nature of the experiment: SPR (Biacore 3000), mAb^2 captured by anti-human Fc, dimeric CD137-mFc as analyte, 1:1 model with mass transfer. The procedure:
(§1) Briefly, 25 µg/ml anti-human IgG (Fc) antibody (GE Healthcare, Human Antibody Capture Kit, BR100839) was coated on flow cells 1, 2, 3 and 4 of a Biacore sensor chip CM5 (GE Healthcare, BR100012) for 3 minutes at 5 µl/min, achieving a final response of approximately 4300 RU. The mAb² clones, diluted in HBS-EP buffer (GE Healthcare, BR100188) at 0.5 µg/ml, were injected individually on flows cell 2, 3 and 4 at 30 µl/min to achieve a response of approximately 80 RU. […] Regeneration was achieved by injecting 3 M magnesium chloride (GE Healthcare, Human Antibody Capture Kit, BR100839) for 30 seconds at a rate of 30 µl/min. […] These slightly less stringent conditions were used to assess whether this molecule could bind to cyno CD137-mFc. Subtracted data (flow cell 2-flow cell 1, flow cell 3-flow cell 1, or flow cell 4-flow cell 1) were analysed using BIAevaluation 3.2 Software (GE Healthcare) to identify binding using the model 1:1 binding with mass transfer, with refractive index (RI) constant 0.

Experiment [1] concerns the target T4, hCD137-mFc-Avi (human, UniProt Q07011 24-186).
T4 construct: dimer; also called human CD137-mFc-Avi; human CD137-mFc
The description is as above. The procedure: as §1

In experiment [2] the target is T4, hCD137-mFc-Avi. Nature of the experiment: SPR (Biacore 3000), against the positive control G1/MOR7480.1. As to the method:
as §1

T4 sequence (Q07011 24-186): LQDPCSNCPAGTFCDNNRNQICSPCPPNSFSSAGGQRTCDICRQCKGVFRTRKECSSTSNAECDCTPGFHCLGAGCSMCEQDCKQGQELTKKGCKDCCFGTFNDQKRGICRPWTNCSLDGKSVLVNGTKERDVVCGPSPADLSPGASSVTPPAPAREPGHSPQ

B1: FS20-22-49AA/FS30-10-3 (bispecific antibody, human IgG1, kappa, L234A L235A, V domains shown)
VH: EVQLLESGGGLVQPGGSLRLSCAASGFTFSSYDMSWVRQAPGKGLEWVSDIDPTGSKTDYADSVKGRFTISRDNSKNTLYLQMNSLRAEDTAVYYCARDLNVYGFDYWGQGTLVTVSS
VL: EIVLTQSPGTLSLSPGERATLSCRASQSVSSSYLAWYQQKPGQAPRLLIYGASSRATGIPDRFSGSGSGTDFTLTISRLEPEDFAVYYCQQSYSYPVTFGQGTKVEIKR
notes: M97 (Kabat) to N against FS30-10; also called FS30-10-3 in mAb^2 format
For the molecule B1, the binding result in the experiment with NGFR-Fc and with DR6-Fc was “no binding (tested: 1 µM (protocol of Example 3.1))” in each case. Moreover, the Kd (commonly a measure of binding affinity in units of concentration) in the experiment with cCD137-mFc-Avi was 0.22 nM; in the experiment with hCD137-mFc-Avi [1], 0.19 nM. Moreover, the “fold higher binding affinity than G1/MOR7480.1” value with hCD137-mFc-Avi [2] is approximately 3 fold.

B2: FS20-22-49AA/FS30-10-12 (bispecific antibody, human IgG1, kappa, L234A L235A, V domains shown)
VH: EVQLLESGGGLVQPGGSLRLSCAASGFTFSSYDMSWVRQAPGKGLEWVSDIDPTGSKTDYADSVKGRFTISRDNSKNTLYLQMNSLRAEDTAVYYCARDLTVYGFDYWGQGTLVTVSS
VL: EIVLTQSPGTLSLSPGERATLSCRASQSVSSSYLAWYQQKPGQAPRLLIYGASSRATGIPDRFSGSGSGTDFTLTISRLEPEDFAVYYCQQSYSYPVTFGQGTKVEIKR
notes: M97 (Kabat) to T against FS30-10; also called FS30-10-12 in mAb^2 format
Take B2: the binding result with NGFR-Fc and with DR6-Fc was “no binding (tested: 1 µM (protocol of Example 3.1))” each time. Besides, the Kd with cCD137-mFc-Avi came to 4.63 nM; with hCD137-mFc-Avi [1] it was 6.31 nM.

B3: FS20-22-49AA/FS30-10-16 (bispecific antibody, human IgG1, kappa, L234A L235A, V domains shown)
VH: EVQLLESGGGLVQPGGSLRLSCAASGFTFSSYDMSWVRQAPGKGLEWVSDIDPTGSKTDYADSVKGRFTISRDNSKNTLYLQMNSLRAEDTAVYYCARDLLVYGFDYWGQGTLVTVSS
VL: EIVLTQSPGTLSLSPGERATLSCRASQSVSSSYLAWYQQKPGQAPRLLIYGASSRATGIPDRFSGSGSGTDFTLTISRLEPEDFAVYYCQQSYSYPVTFGQGTKVEIKR
notes: M97 (Kabat) to L against FS30-10; also called FS30-10-16 in mAb^2 format
Turning to B3, the binding result in the experiment with NGFR-Fc and in the experiment with DR6-Fc was “no binding (tested: 1 µM (protocol of Example 3.1))” throughout. Also, the Kd with cCD137-mFc-Avi turned out to be 0.15 nM; with hCD137-mFc-Avi [1], 0.17 nM. For the same molecule, the “fold higher binding affinity than G1/MOR7480.1” value in the experiment with hCD137-mFc-Avi [2] was approximately 3 fold.

B4: FS20-22-49AA/FS30-5-37 (bispecific antibody, human IgG1, kappa, L234A L235A, V domains shown)
VH: EVQLLESGGGLVQPGGSLRLNCAASGFTFSSYAMSWVRQAPGKGLEWVSAISGSGGSTYYADSVKGRFTISRDNSKNTLYLQMNSLRAEDTAVYYCARSYDKYWGSSIYSGLDYWGQGTLVTVSS
VL: EIVLTQSPGTLSLSPGERATLSCRASQSVSSSYLAWYQQKPGQAPRLLIYGASSRATGIPDRFSGSGSGTDFTLTISRLEPEDFAVYYCQQYYSYYPVTFGQGTKVEIKR
notes: M100D to I and M100H to L against FS30-5; also called FS30-5-37 in mAb^2 format
In the case of B4, the binding result in the experiment with NGFR-Fc and with DR6-Fc was “no binding (tested: 1 µM (protocol of Example 3.1))” each time. In addition, the Kd in the experiment with cCD137-mFc-Avi came out at 3 nM; with hCD137-mFc-Avi [1], 3.45 nM.

B5: FS20-22-49AA/FS30-35-14 (bispecific antibody, human IgG1, kappa, L234A L235A, V domains shown)
VH: EVQLLESGGGLVQPGGSLRLSCAASGFTFSAYNIHWVRQAPGKGLEWVSDISPYGGATNYADSVKGRFTISRDNSKNTLYLQMNSLRAEDTAVYYCARNLYELSAYSYGADYWGQGTLVTVSS
VL: EIVLTQSPGTLSLSPGERATLSCRASQSVSSSYLAWYQQKPGQAPRLLIYGASSRATGIPDRFSGSGSGTDFTLTISRLEPEDFAVYYCQQYYYSSPITFGQGTKVEIKR
notes: M100F (Kabat) to A against FS30-35; also called FS30-35-14 in mAb^2 format
Regarding B5, the binding result with NGFR-Fc and with DR6-Fc was “no binding (tested: 1 µM (protocol of Example 3.1))” throughout. The dissociation constant (Kd) with cCD137-mFc-Avi is 0.67 nM; with hCD137-mFc-Avi [1], 0.6 nM.
